Where a SMILES comes first, the peptide text is derived from it. [ ]: non-standard residue; d: D form. The star is where a group is joined. X1 = CCn1nc(C)cc1C(=O)Nc1nc2cc(C(N)=O)cc(OC)c2n1C/C=C/Cn1c(NC(=O)c2cc(C)nn2CC)nc2cc(C(N)=O)cc(OCCC[N+]3(Cc4ccc(NC(=O)OCCS*)cc4)CCOCC3)c21
Tests used:
[1] = tested on: tumor stroma and immune cells within CT26 tumors; assay: FACS analysis of uptake by tumor stroma and immune cells within CT26 tumors; conditions: mouse, in vivo, ip
Method: Animal studies on mice were conducted at the Charles River Discovery Service in compliance with the principles and procedures outlined by the National Institutes of Health for the care and use of animals. Uptake of Al647-pHLIP(Laa)-STINGa by tumor cells within CT26 tumors was analyzed by fluorescence activated cell sorting (FACS) analysis. […] When tumors reached 150-250 mm^3 in volume mice were separated into two groups. Eight mice from the treated group #1 received a single IP injection of Al647-pHLIP(Laa)-STINGa (300 µM 100 µl), and five mice from the control group #2 received single IP injection of vehicle (1% DMSO in PBS). 24 hours later all animals were euthanized, and tumors were collected for processing. Tumor stroma and immune cells were identified using the following markers:
• CD4 T cells: CD45^+, CD3^+, CD11b^-, CD4^+, CD8^- • CD8 T cells: CD45^+, CD3^+, CD11b^-, CD4^-, CD8^+ • Treg: CD45^+, CD3^+, CD11b^-, CD4^+, CD25^+, FoxP3^+ • mMDSC: CD45^+, CD3^-, CD11b^+, F4/80^-, Ly6C^high, Ly6G^- • gMDSC: CD45^+, CD3^-, CD11b^+, F4/80^-, Ly6C^low, Ly6G^+ • M1: CD45^+, CD11b^+, F4/80^+, CD206^- • M2: CD45^+, CD11b^+, F4/80^+, CD206^+ • DC: CD45^+, CD11b^+, CD11c^+, MHCII^+, F4/80^- • CAF: CD3^-, CD45^-, CD140b^+
The staining was performed for tumor samples, Fluorescence Minus One (FMO) controls and Single Color Controls (SCC) as indicated below:
The following anti-mouse antibodies were used: CD45-APC-Fire750 clone 30-F11, CD8a-BV650 clone 53-6.7, CD25-BV605 clone PC61, F4/80-PE-Dazzle-594 clone BM8, Ly-6C-FITC clone HK1.4, Ly-6G-BV785 clone 1A8, CD206-BV421 clone C068C2, CD140b-PE clone APB5, CD11c-BV711 clone N418, I-A/I-E-PE/Cy7 clone M5/114.15.2 from BioLegend; CD3e-BUV496 clone 145-2C11, CD4-BUV395 clone GK1.5; CD11b-BUV737 clone M1/70 from BD Biosciences, FoxP3 PerCP-Cy5.5 clone FJK-16s from Thermo Fisher and Live/Dead Aqua-V500 from Life Technologies. The procedure for tumor processing was the following: tumor samples were dissociated according to the manufacturer’s instructions using the gentleMACS™ protocol “Tumor Dissociation Kit”. Samples were filtered through a 70 µm cell strainer and rinsed twice in PBS/2.5% FBS buffer and total sample volumes were measured. Single cell suspensions were prepared in PBS pH 7.4 at 1x10^7 cells/mL and placed into individual wells of a 96-well plate and kept on ice. All incubation steps were carried out protected from light. The washing was performed by spinning the plate at 300x g (or 400x g) for 3 minutes and discarding the supernatant. Live/Dead reagent was added to each sample and incubated at 4°C for 15 minutes followed by washing. […]

[2] = STINGa on its own; ref [11]; cited from earlier work
CT26 tumors = assay: Treatment of small (100 mm^3) CT26 tumors in Balb/c mice; format: in vivo, mouse; conditions: single injection, same molar dose level as pHLIP-STINGa
Method: On day 1, when tumors reached size of 100 mm^3 (“small tumors”) or 400-700 mm^3 (“large tumors”), mice were randomized into groups, body weight was measured and agents including pHLIP(Laa)-STINGa, pHLIP(Daa)-STINGa, pHLIP(Laa), STINGa (diABZI) or vehicle were given as a single intraperitoneal (IP) or intravenous (IV) injection. Vehicle, pHLIP(Laa), STINGa (diABZI) and pHLIP(Laa)-STINGa were given as a single IP injection of 100 μM 300 µl. pHLIP(Daa)-STINGa was given as a single IV injection of 200 μM 150 μl. The compounds were dissolved in DMSO as a stock solution and transferred to 20% PEG400 in saline containing 0.9% sodium chloride (vehicle). The residual DMSO in the final solution injected into animals was less than 2%. Tumor volume and body weight were measured 3 times per week throughout the study. Measurements of tumors were performed using calipers, and the tumor volume (V) was calculated with the formula: […]
where L is the length and W is the width of the measured tumor. Mice were removed from the study and euthanized when the tumor volume was greater than 2000 mm^3.

[3] = mouse, in vivo, iv
Method: (§1) For pharmacokinetics (PK), biodistribution, pH imaging studies and immunohistochemistry, 5x10^4 of CT26 cancer cells were injected SQ in 100 µl of growth medium into the right flank of female Balb/c mice and tumors were grown until they reached 150-200 mm^3 in volume. […] Animals were euthanized at 2, 4, 24, 48, 72 and 96 hours post-injection, blood was collected in K2 EDTA vacutainer blood collection tubes (BD), and necropsy was performed immediately after euthanization. Blood, tumors and major organs (kidney, liver, spleen, pancreas, lung, heart, large and small intestines, bone, muscle, brain) were collected, and imaged ex vivo immediately after necropsy. Blood (150 µl) was imaged in 96-well plate with black bottom and walls. […] The fluorescence at zero-time point was taken as 100% and fluorescence recorded at 2, 4, 24 and 48 hrs p.i. were calculated as a percentage of zero-time point signal. […]
(§2) The in vivo and ex vivo bright field and near-infrared fluorescent imaging was performed using a Stryker 1588 AIM endoscopic system with L10 AIM Light Source (808 nm excitation and collection of light in the range of approximately of 815 to 850 nm), and a 1588 AIM Camera using a 10 mm scope. […] The calculated total fluorescence intensity and total area of each organ were used to calculate the mean organ fluorescence.

CT26 tumor = conditions: mouse, in vivo
Method: as §1, §2

human plasma proteins = assay: Binding to human plasma proteins (plasma stability study); format: in vitro ADME; conditions: for amount of product bound to plasma proteins (in brackets): single donor human plasma, 200 μM, 37°C, HPLC
Method: (§3) To establish the stability of pHLIP(Laa)-STINGa and pHLIP(Daa)-STINGa in plasma, pHLIP-STINGa was mixed with single donor human or BALB/c mouse plasma (Innovative Research) at a concentration of 200 μM, and kept in plasma for 0, 2, 4 or 24 hours at 37°C. Plasma proteins were precipitated by methanol (1:5 volume ratio of plasma to methanol) and centrifugated for 10 min at […]. The supernatant was collected and analyzed by HPLC using a Zorbax SB-C18 4.6 × 250 mm, 5 μm column with a gradient from 10% to 75% acetonitrile in water containing 0.05% TFA. Chromatograms were recorded at 220 nm, 280 nm and 320 nm. As controls pHLIP(Laa), pHLIP(Daa), Pys-PAB-STINGa, SH-PAB-STINGa, where Pys-PAB-STINGa was conjugated with a Cys residue, and diABZI (In vivogen) were analyzed for stability in plasma under the same conditions.

mouse plasma proteins = assay: Binding to mouse plasma proteins (plasma stability study); format: in vitro ADME; conditions: BALB/c mouse plasma, 200 μM, 37°C, HPLC
Method: as §3

[4] = Stability in mouse plasma; format: in vitro ADME
Method: as §3

[5] = Stability in human plasma; format: in vitro ADME
Method: as §3

With “AKDDQNPWRAYLDLLFPTDTLLLDLLWCG [Al647-pHLIP-STINGa]” the “% of cells taken Al647-pHLIP-STINGa: CAFs” value [1] was 74%, the “% of cells taken Al647-pHLIP-STINGa: CD8 T-cells” value [1] was 24% and the “% of cells taken Al647-pHLIP-STINGa: DCs” value [1] was 52%. For the same molecule, the “% of cells taken Al647-pHLIP-STINGa: TAMs (CD206+)” value [1] was 71%.
For diABZI [STINGa], the half-life [2] is listed as 1.4 h and the “time by which all animals developed tumors” value (CT26 tumors) is listed as no more than 35 days p.i.
For “AKDDQNPWRAYLDLLFPTDTLLLDLLWCG [ICG-pHLIP-STINGa]”, the half-life in blood [3] was 8.2 h and the “persistence of fluorescence signal in the tumor” value (CT26 tumor) was 8 days.
In the case of `CCn1nc(C)cc1C(=O)Nc1nc2cc(C(N)=O)cc(OC)c2n1C/C=C/Cn1c(NC(=O)c2cc(C)nn2CC)nc2cc(C(N)=O)cc(OCCC[N+]3(Cc4ccc(NC(=O)OCCSSC[C@@H](NC(=O)[C@@H](Cc5c[nH]c6ccccc56)NC(=O)[C@@H](CC(C)C)NC(=O)[C@@H](CC(C)C)NC(=O)[C@@H](CC(=O)O)NC(=O)[C@@H](CC(C)C)NC(=O)[C@@H](CC(C)C)NC(=O)[C@@H](CC(C)C)NC(=O)[C@H](NC(=O)[C@@H](CC(=O)O)NC(=O)[C@H](NC(=O)[C@H]5CCCN5C(=O)[C@@H](Cc5ccccc5)NC(=O)[C@@H](CC(C)C)NC(=O)[C@@H](CC(C)C)NC(=O)[C@@H](CC(=O)O)NC(=O)[C@@H](CC(C)C)NC(=O)[C@@H](Cc5ccc(O)cc5)NC(=O)[C@@H](C)NC(=O)[C@@H](CCCNC(=N)N)NC(=O)[C@@H](Cc5c[nH]c6ccccc56)NC(=O)[C@H]5CCCN5C(=O)[C@@H](CC(N)=O)NC(=O)[C@@H](CC(=O)O)NC(=O)[C@@H](CCC(N)=O)NC(=O)[C@@H](CC(=O)O)NC(=O)[C@@H](C)N)[C@H](C)O)[C@H](C)O)C(=O)NCC(=O)O)cc4)CCOCC3)c21` [pHLIP(Daa)-STINGa] (H-[dA][dD][dQ][dD][dN][dP][dW][dR][dA][dY][dL][dD][dL][dL][dF][dP][dT][dD][dT][dL][dL][dL][dD][dL][dL][dW][dC](X1)G-OH; N-terminus and C-terminus assumed), the “binding to plasma proteins, in words” value (human plasma proteins; compared with the Laa version, especially human plasma proteins) is reported as “much stronger binding to plasma proteins than the Laa version”, the “amount of product bound to plasma proteins (in brackets)” value (shortened to “amount of product bound”) (human plasma proteins; 0 h) is reported as 0% and the “amount of product bound” value (human plasma proteins; 2 h) is reported as 77.2%. For the same molecule, the “amount of product bound” value (human plasma proteins; 4 h) was 84.4%, the “amount of product bound” value (human plasma proteins; 24 h) was 87.7% and the “amount of product bound” value (mouse plasma proteins; 0 h) was 0%. For the same molecule, the “amount of product bound” value (mouse plasma proteins; 2 h) was 51.7%, the “amount of product bound” value (mouse plasma proteins; 4 h) was 59.6% and the “amount of product bound” value (mouse plasma proteins; 24 h) was 75.9%. For the same molecule, the “amount of undegraded product (free fraction)” value ([4]; BALB/c mouse plasma, 200 μM, 37°C, 0 h, methanol precipitation, HPLC C18, UV 220/280/320 nm) was 99.4%, the remaining at 2 h, 200 μM ([4]; BALB/c mouse plasma, 200 μM, 37°C, 2 h, methanol precipitation, HPLC C18, UV, read-out: amount of undegraded product (free fraction)) was 90.9% and the remaining at 4 h, 200 μM ([4]; BALB/c mouse plasma, 200 μM, 37°C, 4 h, methanol precipitation, HPLC C18, UV, read-out: amount of undegraded product (free fraction)) was 84.5%. For the same molecule, the remaining at 24 h, 200 μM ([4]; BALB/c mouse plasma, 200 μM, 37°C, 24 h, methanol precipitation, HPLC C18, UV, read-out: amount of undegraded product (free fraction)) was 58.2%, the “modified STINGa released from pHLIP” value ([4]; incubated with mouse plasma, 37°C (text summary of Table S1)) was “about 40%” and the metabolised at 24 h, 200 μM ([5]; human plasma, over 24 hours, 37°C (text summary of Table S1), read-out: degradation) was roughly 10%. For the same molecule, the “amount of undegraded product (free fraction)” value ([5]; single donor human plasma, 200 μM, 37°C, 0 h, methanol precipitation, HPLC C18, UV) was 99.4%, the remaining at 2 h, 200 μM ([5]; single donor human plasma, 200 μM, 37°C, 2 h, methanol precipitation, HPLC C18, UV, read-out: amount of undegraded product (free fraction)) was 99.2% and the remaining at 4 h, 200 μM ([5]; single donor human plasma, 200 μM, 37°C, 4 h, methanol precipitation, HPLC C18, UV, read-out: amount of undegraded product (free fraction)) was 97.6%. For the same molecule, the remaining at 24 h, 200 μM ([5]; single donor human plasma, 200 μM, 37°C, 24 h, methanol precipitation, HPLC C18, UV, read-out: amount of undegraded product (free fraction)) was 89.6%.

— PMC9622777, “Eradication of tumors and development of anti-cancer immunity using STINGa targeted by pHLIP” (Frontiers in Oncology, 2022)
